Test results: patent publication US20160311886A1, “Constructs Binding to Phosphatidylserine and Their Use in Disease Treatment and Imaging” (Board of Regents, The University of Texas System, priority 2005, published 2016)
Read-outs that look alike come from different tables or passages of the source.

T1: human β2GPI (Homo sapiens, UniProt P02749)
T1 construct: Human β2GPI (hβ2GP1) was purified from human plasma essentially as described previously; from tissue; host or cells: pooled human plasma
T1 sequence (P02749 20-345): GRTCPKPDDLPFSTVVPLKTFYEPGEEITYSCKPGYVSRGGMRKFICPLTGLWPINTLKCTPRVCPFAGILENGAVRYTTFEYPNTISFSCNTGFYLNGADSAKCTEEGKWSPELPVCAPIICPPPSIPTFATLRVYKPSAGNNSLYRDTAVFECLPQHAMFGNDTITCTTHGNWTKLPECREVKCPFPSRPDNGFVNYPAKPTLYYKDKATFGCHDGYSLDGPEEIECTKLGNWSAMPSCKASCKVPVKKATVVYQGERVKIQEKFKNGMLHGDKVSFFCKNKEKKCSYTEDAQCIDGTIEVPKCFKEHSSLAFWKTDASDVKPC

B1: 3G4: Mouse IgG3 kappa monoclonal antibody to PS and anionic phospholipids; binding mediated by β2-glycoprotein I (antibody, listed as Mus musculus)
VH: MGWTWIFILILSVTTGVHSEVQLQQSGPELEKPGASVKLSCKASGYSFTGYNMNWVKQSHGKSLEWIGHIDPYYGDTSYNQKFRGKATLTVDKSSSTAYMQLKSLTSEDSAVYYCVKGGYYGHWYFDVWGAGTTVTVSSATTTAPSVYPLVP
VL: MDMRAPAQILGFLLLLFPGTRCDIQMTQSPSSLSASLGERVSLTCRASQDIGSSLNWLQQGPDGTIKRLIYATSSLDSGVPKRFSGSRSGSDYSLTISSLESEDFVDYYCLQYVSSPPTFGAGTKLELKRADAAPTVFIFGRIP

What was measured:
[1] = Anti-PS ELISA; assay type: binding
Protocol: The anti-PS ELISA used in the present studies example is conducted as follows. Unless particular differences are specified, this is the format of the ELISA used throughout the studies of the present application.
The ELISA of the present example is exemplified using the antigen PS (P-6641 25 mg 10 mg/ml (solvent is Chloroform:MeOH 95:5) in 2.5 ml bottle). Other phospholipids can be used using the same protocol. The PS (or other phospholipids) stock solution should be aliquoted and stored in an airtight container at −30° C. The preferred 96 well plates are Dynatech U bottom Immulon 1 (from Dynatech Labs, Cat#011-010-3550).
The standard blocking buffer used in the present example is 10% bovine serum dissolved in PBS. Other blocking solutions are suitable, but any detergents should be excluded from block and wash solutions. The primary antibody is the test sample or admixture. […] The developing solutions are: 10 ml of 0.2M Na2PO4, 10 ml of 0.1M citric acid, one 10 mg tablet of OPD, and 10 μl of hydrogen peroxide. The stop solution is 0.18 M H2SO4.
The protocol of the present example entails coating 96-well plate with PS as follows: dilute the PS stock solution in n-hexane to 10 μg/ml and mix well. Add 50 μl to each well and allow this to evaporate for one hour. Add 200 μl of 10% serum (or other blocking buffer) to each well, cover and maintain at room temperature for 2 hours or overnight at 4° C. Wash the plate three times with PBS. Add the primary antibody (dilute in blocking buffer) and incubate for 2 hours at 37° C. Wash three times with PBS. […] Wash the plate three times with PBS. Develop the ELISA by adding 100 μl of developing solution to each of the wells, develop for 10 minutes, then add 100 μl of stop solution to each plate and read the O.D. at 490 nm.

[2] = Phospholipid specificity ELISA; assay type: binding
Protocol: The specificity of the antibodies was determined by ELISA using plates coated with the following phospholipids: PS, phosphatidylserine; PE, phosphatidylethanolamine; PI, phosphatidylinositol; PA, phosphatidic acid; PG, phosphatidylglycerol; PC, phosphatidylcholine; CL, cardiolipin; and SM, sphingomyelin.

[3] = Serum dependence of binding to PS
Protocol: The serum dependence or independence of the antibodies is also set forth in Table 2 (see also, Example XXX).
The 1B9, 2G7 and 7C5 antibodies behave essentially the same. These antibodies recognize only PS and require serum or serum proteins for binding to PS. The binding of 1B9, 2G7 and 7C5 to various phospholipids in the present example was assayed only in the presence of 10% bovine serum, whereas binding of the other antibodies was tested either in the absence or in the presence of serum.

[4] = 3G4 toxicity studies in mice; assay type: in vivo, mouse
Excerpt: The following parameters were specifically examined.
Mice retain normal physical signs, bone marrow cellularity, white blood cell counts, histology and coagulation functions.

[5] = tested on: Meth A fibrosarcoma; assay: 3G4 tumor treatment; assay type: in vivo, mouse
Protocol: Treatment was repeated 3 times a week. Animals were monitored twice a week for tumor measurements.
Groups of 8-10 female SCID mice were injected subcutaneously with 2×10^7 L540 cells or orthotopically with 1×10^7 MDA-MB-435 or MDA-MB-231 cells. BALB/c mice were injected subcutaneously with 1×10^6 Meth A cells. Tumors were allowed to grow to an average diameter of 0.8-1 cm (L540), 0.6-0.7 cm (MDA-MB-435), 0.5-0.7 cm (MDA-MB-231), or <0.1 cm (Meth A). […] Animals were monitored three times a week for tumor size and body weight. Mice were sacrificed when tumors in control mice reached a diameter of 1.5-2 cm.

[6] = target: T1, human β2GPI; assay: Anti-hβ2GPI ELISA; assay type: binding
Protocol: The assay was performed as described above with the following modifications. hβ2GPI, nicked hβ2GPI, or recombinant hβ2GPI peptides were coated on 96-well Immunlon 2HB microtiter plates overnight at a concentration of 10 μg/ml. Plates were then blocked in 1% OVA for 1 hr. at room temperature. […] Plates were incubated for 1 hr. at 37° C. and antibody binding was detected. All ELISA studies were performed at least three times.

[7] = MW used for conversion: IgM 900 kDa, IgG 150 kDa, Annexin V 36 kDa, read-out: EC50

Molecule	EC50 [1, 7] [nM]	EC50 ([1]; dilutions of tissue culture supernatants) [mg/L]	Affinity vs. 3SB (−fold increased) ([1]; from EC50 in nM) [fold]	Binding vs. 3SB (−fold increased) ([1]; from EC50 in μg/ml) [fold]	Relative Strength of Reactivity on ELISA [2]	Serum cofactor? [3]	binding specificity profile [2]	blood coagulation parameters (PT, APTT, D-dimer) ([4]; 100 μg IP three times a week)	toxicity ([4]; 1 mg purified antibody intraperitoneally)	physical signs of toxicity ([4]; BALB/c mice, 100 μg IP three times a week for 2 to 4 weeks)	physical signs of toxicity ([4]; single i.p. 2 mg, or 0.5 mg daily for 14 days)	Bone marrow cellularity and composition ([4]; six injections, 100 μg)	mice with long-term complete remissions ([5]; Meth A-bearing mice) [%]	retardation of tumor growth ([5]; syngeneic Meth A fibrosarcoma) [%]	binding to hβ2GPI coated plate [6]
Annexin V: High affinity PS binding ligand; natural ligand binding anionic phospholipids and PE	2.77	0.100	0.18	4.68	PS = PE = PI = PA > CL > PG	No									
B1	0.266					β2-glycoprotein I and Yes,	PS=PA=PI=PG>CL>>PE	normal	no toxicity was observed	No physical signs of toxicity have been observed	showed no physical signs of toxicity	normal	50	90	bound strongly
